Measurements as given in PMC6951436.

Tests used:
[1] = molecular target: pyruvate kinase liver isoform (PKL) (UniProt P12928); assay: native PAGE of oligomeric state; conditions: reference: non-phosphorylated PKL (WT); sites S113
[2] = molecular target: pyruvate kinase liver isoform (PKL) (UniProt P12928); assay: size-exclusion chromatography of oligomeric state; conditions: reference: non-phosphorylated PKL (WT); sites S113

Chain of pyruvate kinase liver isoform (PKL) (from UniProt P12928-2) PKL pS113 proteoform (P12928 whole entry, looked up, stated change not applied, canonical isoform): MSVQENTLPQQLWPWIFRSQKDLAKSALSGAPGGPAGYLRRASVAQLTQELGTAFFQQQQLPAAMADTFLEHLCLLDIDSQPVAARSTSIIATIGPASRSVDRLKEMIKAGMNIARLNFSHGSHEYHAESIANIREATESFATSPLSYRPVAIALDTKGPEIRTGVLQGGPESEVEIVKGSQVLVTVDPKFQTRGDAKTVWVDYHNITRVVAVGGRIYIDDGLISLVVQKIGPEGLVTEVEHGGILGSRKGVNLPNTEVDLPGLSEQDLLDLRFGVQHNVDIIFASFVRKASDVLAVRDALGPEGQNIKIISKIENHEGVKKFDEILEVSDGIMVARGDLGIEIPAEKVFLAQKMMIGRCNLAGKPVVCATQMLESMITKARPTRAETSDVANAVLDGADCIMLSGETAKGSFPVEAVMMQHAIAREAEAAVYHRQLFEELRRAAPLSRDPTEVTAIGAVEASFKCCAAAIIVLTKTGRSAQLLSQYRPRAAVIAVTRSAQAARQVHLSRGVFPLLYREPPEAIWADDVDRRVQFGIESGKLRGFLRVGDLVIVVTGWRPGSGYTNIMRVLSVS
Chain of pyruvate kinase liver isoform (PKL) (UniProt P12928) (P12928 whole entry, looked up, canonical isoform): as the sequence (P12928 whole entry, looked up, stated change not applied, canonical isoform) above

Substance: pyruvate kinase liver isoform (PKL) (from UniProt P12928-2) PKL pS113 proteoform
- binding against the reference [1]: same
- binding against the reference [2]: same
